The results in this text go back to US20210017287A1 (published 2021).

Positions count from the first letter of the chain named. Bounds are passed on as bounds.

First the molecules themselves.
T1: TNFRSF25-Fc fusion protein (UniProt Q93038 25-199, limits assumed, biotinylated in the capture ELISA (site not stated))
T1 construct: also called TNFRSF25-Fc protein; biotinylated antigen protein; not shown: Fc part
T1 sequence (looked up): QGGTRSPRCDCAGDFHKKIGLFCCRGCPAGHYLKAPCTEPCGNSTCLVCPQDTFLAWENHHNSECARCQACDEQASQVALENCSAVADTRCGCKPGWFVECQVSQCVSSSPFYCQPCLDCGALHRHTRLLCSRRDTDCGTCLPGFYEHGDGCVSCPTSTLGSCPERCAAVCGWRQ

B1: 42H8 (scFv, V domains shown)
VH: EVQLVESGGGLSQPGNSLQLSCEASGFTFSNHDLNWVRQAPGKGLEWVAYISSASGLISYADAVRGRFTISRDNAKNSLFLQMNNLKSEDTAMYYCARDPPYSGLYALDFWGQGTQVTVSS
VL: QPVLTQSPSASASLSGSVKLTCTLSSELSYYTIVWYQQRPDKAPKYVMYLKSDGSHSKGDGIPDRFSGSSSGAHRYLSISNVQSEDDATYFCGAGYTLAGQYGWVFGSGTKVTVL
B2: 43F11 (scFv, V domains shown)
VH: B1 VH
VL: B1 VL with Y30S, Y31F
B3: 42F9 (scFv, V domains shown)
VH: B1 VH
VL: B1 VL with Y30F
B4: 66B8 (scFv, V domains shown)
VH: B1 VH
VL: B1 VL with Y30S, G100N
B5: 12F7 (scFv, V domains shown)
VH: B1 VH with G56Q
VL: B1 VL with Y30S
notes: scFv; Position 12 is a library position read from the clone ID
B6: 10C3 (scFv, V domains shown)
VH: B1 VH with A54D
VL: B1 VL with Y30S
notes: scFv
B7: 42G2 (scFv, V domains shown)
VH: B1 VH
VL: B1 VL with Y30W
notes: scFv
B8: 1F10 (scFv, V domains shown)
VH: B1 VH with P101A, S103T
VL: B1 VL with Y30N, Y31F, G100S
notes: scFv; Frameworks and unchanged CDRs are those of the parental clone
B9: W3072-z4C12-scFv (scFv, V domains shown)
VH: B1 VH
VL: B1 VL with Y30S
notes: scFv (captured by anti-c-myc antibody); also called WT; wild-type
B10: 3G4 (scFv, V domains shown)
VH: B1 VH with P101A, S103T
VL: B1 VL with Y30G, Y31F, G100R
notes: as for B8
B11: 5E1 (scFv, V domains shown)
VH: B1 VH with P101A, S103T
VL: B1 VL with Y30N, A94M, G100N
notes: as for B8
B12: 4B6 (scFv, V domains shown)
VH: B1 VH with P101A, S103T
VL: B1 VL with Y30N, G100N
notes: as for B8
B13: 9G2 (scFv, V domains shown)
VH: B1 VH with P101A, S103T
VL: B1 VL with Y30W
notes: as for B8
B14: 10B8 (scFv, V domains shown)
VH: B1 VH with P101A
VL: B1 VL with Y30N, Y31F
notes: as for B8
B15: 6G11 (scFv, V domains shown)
VH: B1 VH
VL: B1 VL with Y30N, Y31F
notes: as for B8
B16: 9A5 (scFv, V domains shown)
VH: B1 VH with P101A, S103T
VL: B1 VL with Y30G, Y31F, G100N
notes: as for B8
B17: 2A5 (scFv, V domains shown)
VH: B1 VH with P101A, S103T
VL: B1 VL with Y30N, Y31F, A94M, G100N
notes: as for B8
B18: 5A6 (scFv, V domains shown)
VH: B1 VH with S103T
VL: B1 VL with Y30N, Y31F, G100N
notes: as for B8

In one assay the target is T1, TNFRSF25-Fc fusion protein. Put plainly: single point capture ELISA, scFv captured by anti-c-myc, biotinylated antigen. As to the method:
(§1) Primary screening of the scFv library: The primary screen consisted of a single point ELISA (SPE) assay, which was carried out using periplasmic extract (PE) of bacteria grown in 96-well (deep well) plates. Briefly, this capture ELISA involved coating individual wells of a 96-well Maxisorp Immunoplate with anti-c-myc antibody in coating buffer (200 mM Na₂CO₃/NaHCO₃) at pH 9.2 overnight at 4° C. The next day, the plate was blocked with Casein for 1 hour at room temperature. scFv PE was then added to the plate and incubated at room temperature for 1 hour. After washing, biotinylated antigen protein was added to the well and the mixture was incubated for 1 hour at room temperature. This was followed by incubation with streptavidin-horseradish peroxidase (HRP) conjugate for 1 hour at room temperature. HRP activity was detected with tetra-methyl-benzidine (TMB) substrate, and the reaction was quenched with 2M HCl. Plates were read at 450 nm. […] The scFv protein concentration was determined by comparing the ELISA signals with signals generated by the reference scFv. The binding assay was repeated once more for all positive variants under normalized scFv concentrations in order to determine the relative binding affinity of the mutant scFv and the parental antibody. Selected scFv hits displaying improved binding were re-formulated to IgG1 and tested in a caspase-3 assay as described below.
A general note: In an ELISA, binding on a coated surface is turned into a signal by an enzyme label.
On to B1, for which the OD450 was 1.67 OD450.

The molecule B2 had an OD450 of 1.6 OD450.

In turn, B3 yielded an OD450 of 2.33 OD450.

The molecule B4 gave an OD450 of 0.4 OD450.

B5 came in with an OD450 of 0.85 OD450.

On to B6, for which the OD450 is 0.7 OD450.

In turn, B7 had an OD450 of 3.19 OD450.

Another assay concerns the target T1, TNFRSF25-Fc fusion protein. Put plainly: binding ELISA of scFv clones on TNFRSF25-Fc (FIG. 10).
As for B8, the Bmax was found to be 1.73.

Molecule B9 had a Bmax of 0.1.

B10 yielded a Bmax of 1.53.

On to B11, for which the Bmax is 1.32.

B12 showed a Bmax of 1.26.

In turn, B13 yielded a Bmax of 1.04.

Take B14: the Bmax came out at 1.49.

As for B15, the Bmax is 1.32.

As to B7, the Bmax amounted to 0.447.

B16 gave a Bmax of 1.81.

In turn, B17 had a Bmax of 1.28.

B18: the Bmax was found to be 1.89.

In another assay the target is T1, TNFRSF25-Fc fusion protein. The experiment in a line: capture ELISA of scFv, against W3072-z4C12-scFv. As to the method: as §1
With B7, the “fold increase in ELISA signal” value is over 10 fold.
